{"source": "the supplement of paper PMC10065799", "about": "“High-throughput profiling of sequence recognition by tyrosine kinases and SH2 domains using bacterial peptide display” (eLife, 2023);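 also: 11-residue human phosphosite peptides and single-mutation variants displayed on the E. coli surface, counted by deep sequencing, each peptide's frequency after selection divided by its frequency in the unselected input library; frequency after pTyr selection over input frequency; kinase dosed for 20-30% of maximal phosphorylation in three min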"}
{"target": "Fes (UniProt P07332)", "sequence (P07332 whole entry, looked up)": "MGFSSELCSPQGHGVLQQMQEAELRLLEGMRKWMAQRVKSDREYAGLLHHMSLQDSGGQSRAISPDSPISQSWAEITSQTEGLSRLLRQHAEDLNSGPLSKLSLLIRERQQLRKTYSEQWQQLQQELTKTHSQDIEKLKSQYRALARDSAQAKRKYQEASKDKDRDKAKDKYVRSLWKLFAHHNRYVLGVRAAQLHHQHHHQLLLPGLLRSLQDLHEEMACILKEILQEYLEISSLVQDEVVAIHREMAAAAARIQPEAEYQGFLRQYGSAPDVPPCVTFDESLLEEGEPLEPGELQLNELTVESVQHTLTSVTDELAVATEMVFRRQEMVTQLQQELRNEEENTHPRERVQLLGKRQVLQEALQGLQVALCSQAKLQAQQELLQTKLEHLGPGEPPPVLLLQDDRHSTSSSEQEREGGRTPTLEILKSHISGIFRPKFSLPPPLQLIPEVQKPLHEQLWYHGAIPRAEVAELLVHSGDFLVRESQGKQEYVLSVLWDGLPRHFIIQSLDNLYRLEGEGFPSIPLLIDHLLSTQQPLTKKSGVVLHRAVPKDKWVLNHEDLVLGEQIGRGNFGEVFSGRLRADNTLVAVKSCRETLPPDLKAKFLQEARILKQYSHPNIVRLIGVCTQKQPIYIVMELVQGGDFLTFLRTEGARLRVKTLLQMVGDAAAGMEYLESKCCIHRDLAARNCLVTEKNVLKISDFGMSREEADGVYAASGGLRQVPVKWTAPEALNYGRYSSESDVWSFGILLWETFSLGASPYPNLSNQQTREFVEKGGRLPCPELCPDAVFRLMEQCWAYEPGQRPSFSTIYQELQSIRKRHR", "assay": "phosphorylation enrichment, bacterial display (enrichment ratio); higher = better substrate or ligand; peptides without Tyr show the background"}
{"sequence": "TNQVIYLNPPI [DYNC1H1_Y970]", "phosphorylation enrichment": 0.77}
{"sequence": "LFLALYTGLVH [PIGB_Y402]", "phosphorylation enrichment": 2.02}
{"sequence": "ESFCLYPPVPQ [CYP4B1_Y377_R375C]", "phosphorylation enrichment": 1.12}
{"sequence": "EEALFYLTRVE [SET_Y119_H118Y_YF]", "phosphorylation enrichment": 1.67}
{"sequence": "GGYTCCCDGKK [PROS1_Y266_Y266C]", "phosphorylation enrichment": 1}
{"sequence": "SEDSEYYKAFE [CASQ2_Y178]", "phosphorylation enrichment": 1.16}
{"sequence": "YFRDGYMPRQY [GSS_Y270]", "phosphorylation enrichment": 0.74}
{"sequence": "TSYSGYRCHRH [NKAPL_Y94_Y96C]", "phosphorylation enrichment": 0.695}
{"sequence": "IDPYIYTPFGS [CYP3A4_Y432]", "phosphorylation enrichment": 0.956}
{"sequence": "WQQQSYLDSVI [CTNNB1_Y30_G34V]", "phosphorylation enrichment": 1.03}
{"sequence": "FTRNFYVWAVL [CYBA_Y88_R90W_YF]", "phosphorylation enrichment": 1.42}
{"sequence": "IEPVIDVVQRR [ANOS1_Y217_Y217D]", "phosphorylation enrichment": 0.98}
{"sequence": "SDFFAYSPVRE [H6PD_Y449_YF]", "phosphorylation enrichment": 1.02}
{"sequence": "SLNEEYAKNKT [MSH2_Y563_T564A]", "phosphorylation enrichment": 0.877}
{"sequence": "ETKRPYTVILI [SBDS_Y128]", "phosphorylation enrichment": 1.15}
{"sequence": "TEVRRYVLPLN [RPE65_Y368_P363T]", "phosphorylation enrichment": 0.887}
{"sequence": "RRIHSYRGFLW [VHL_Y112_H115Y_YF]", "phosphorylation enrichment": 0.575}
{"sequence": "VPLATYMRIYK [RPL21_Y30]", "phosphorylation enrichment": 0.958}
{"sequence": "RHIEKYVDQGK [IRAK3_Y61]", "phosphorylation enrichment": 0.833}
{"sequence": "GTTIHYNFMCN [TP53_Y234_C229G_YF]", "phosphorylation enrichment": 1.32}
{"sequence": "ISKKIYDTIHD [CTNNA3_Y614]", "phosphorylation enrichment": 0.587}
{"sequence": "ITSLLYHVVGW [GBA_Y412_N409S]", "phosphorylation enrichment": 1.31}
{"sequence": "NLMPAYYKCIQ [CYP21A2_Y190]", "phosphorylation enrichment": 1.28}
{"sequence": "HCFAAYFQQGD [GPI_Y351_R347C]", "phosphorylation enrichment": 2.51}
{"sequence": "WNNLDYMDSRR [GAA_Y407_D404N]", "phosphorylation enrichment": 0.907}
{"sequence": "PASWTYVRWFD [PTDSS1_Y274]", "phosphorylation enrichment": 1.79}
{"sequence": "PLRAFYLIARV [HLCS_Y635_D634Y_YF]", "phosphorylation enrichment": 4.68}
{"sequence": "PSGPTYRGAVP [ASAH1_Y43]", "phosphorylation enrichment": 0.698}
{"sequence": "FSGDCYRIQGR [DDR2_Y741_Y740C_YF]", "phosphorylation enrichment": 1.05}
{"target": "EPHB1 (UniProt P54762)", "sequence (P54762 whole entry, looked up)": "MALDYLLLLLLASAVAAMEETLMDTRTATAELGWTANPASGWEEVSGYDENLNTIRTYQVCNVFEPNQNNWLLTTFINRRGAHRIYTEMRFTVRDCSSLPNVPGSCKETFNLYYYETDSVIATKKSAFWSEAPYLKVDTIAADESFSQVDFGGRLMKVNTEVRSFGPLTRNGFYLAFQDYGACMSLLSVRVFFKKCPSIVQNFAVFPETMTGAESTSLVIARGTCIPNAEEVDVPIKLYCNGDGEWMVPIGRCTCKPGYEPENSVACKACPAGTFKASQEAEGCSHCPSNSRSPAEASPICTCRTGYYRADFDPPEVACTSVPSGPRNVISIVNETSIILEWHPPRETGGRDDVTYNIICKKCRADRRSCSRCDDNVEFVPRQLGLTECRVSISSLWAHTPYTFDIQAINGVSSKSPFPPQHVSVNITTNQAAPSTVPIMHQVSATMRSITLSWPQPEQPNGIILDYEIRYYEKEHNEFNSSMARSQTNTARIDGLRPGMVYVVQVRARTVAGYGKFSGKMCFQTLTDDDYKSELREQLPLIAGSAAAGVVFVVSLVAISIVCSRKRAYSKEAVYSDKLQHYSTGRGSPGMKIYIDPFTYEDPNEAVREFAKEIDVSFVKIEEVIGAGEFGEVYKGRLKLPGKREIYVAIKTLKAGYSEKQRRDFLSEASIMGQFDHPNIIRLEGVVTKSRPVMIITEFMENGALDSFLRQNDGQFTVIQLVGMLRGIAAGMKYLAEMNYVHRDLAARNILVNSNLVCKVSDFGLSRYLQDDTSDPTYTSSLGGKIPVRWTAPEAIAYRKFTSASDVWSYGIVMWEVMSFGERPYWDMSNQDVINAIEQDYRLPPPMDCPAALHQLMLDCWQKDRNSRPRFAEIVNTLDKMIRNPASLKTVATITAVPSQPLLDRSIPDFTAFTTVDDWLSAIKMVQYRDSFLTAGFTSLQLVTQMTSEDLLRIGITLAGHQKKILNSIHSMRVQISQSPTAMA", "assay": "phosphorylation enrichment, bacterial display (enrichment ratio); higher = better substrate or ligand; peptides without Tyr show the background"}
{"sequence": "TNQVIYLNPPI [DYNC1H1_Y970]", "phosphorylation enrichment": 7.69}
{"sequence": "LFLALYTGLVH [PIGB_Y402]", "phosphorylation enrichment": 1.26}
{"sequence": "ESFCLYPPVPQ [CYP4B1_Y377_R375C]", "phosphorylation enrichment": 0.805}
{"sequence": "EEALFYLTRVE [SET_Y119_H118Y_YF]", "phosphorylation enrichment": 0.967}
{"sequence": "GGYTCCCDGKK [PROS1_Y266_Y266C]", "phosphorylation enrichment": 0.442}
{"sequence": "SEDSEYYKAFE [CASQ2_Y178]", "phosphorylation enrichment": 0.656}
{"sequence": "YFRDGYMPRQY [GSS_Y270]", "phosphorylation enrichment": 0.429}
{"sequence": "TSYSGYRCHRH [NKAPL_Y94_Y96C]", "phosphorylation enrichment": 0.386}
{"sequence": "IDPYIYTPFGS [CYP3A4_Y432]", "phosphorylation enrichment": 0.702}
{"sequence": "WQQQSYLDSVI [CTNNB1_Y30_G34V]", "phosphorylation enrichment": 0.511}
{"sequence": "FTRNFYVWAVL [CYBA_Y88_R90W_YF]", "phosphorylation enrichment": 0.573}
{"sequence": "IEPVIDVVQRR [ANOS1_Y217_Y217D]", "phosphorylation enrichment": 0.379}
{"sequence": "SDFFAYSPVRE [H6PD_Y449_YF]", "phosphorylation enrichment": 0.614}
{"sequence": "SLNEEYAKNKT [MSH2_Y563_T564A]", "phosphorylation enrichment": 0.394}
{"sequence": "ETKRPYTVILI [SBDS_Y128]", "phosphorylation enrichment": 0.57}
{"sequence": "TEVRRYVLPLN [RPE65_Y368_P363T]", "phosphorylation enrichment": 0.377}
{"sequence": "RRIHSYRGFLW [VHL_Y112_H115Y_YF]", "phosphorylation enrichment": 0.343}
{"sequence": "VPLATYMRIYK [RPL21_Y30]", "phosphorylation enrichment": 0.511}
{"sequence": "RHIEKYVDQGK [IRAK3_Y61]", "phosphorylation enrichment": 0.577}
{"sequence": "GTTIHYNFMCN [TP53_Y234_C229G_YF]", "phosphorylation enrichment": 0.743}
{"sequence": "ISKKIYDTIHD [CTNNA3_Y614]", "phosphorylation enrichment": 0.351}
{"sequence": "ITSLLYHVVGW [GBA_Y412_N409S]", "phosphorylation enrichment": 5.12}
{"sequence": "NLMPAYYKCIQ [CYP21A2_Y190]", "phosphorylation enrichment": 0.708}
{"sequence": "HCFAAYFQQGD [GPI_Y351_R347C]", "phosphorylation enrichment": 1.05}
{"sequence": "WNNLDYMDSRR [GAA_Y407_D404N]", "phosphorylation enrichment": 0.914}
{"sequence": "PASWTYVRWFD [PTDSS1_Y274]", "phosphorylation enrichment": 1.12}
{"sequence": "PLRAFYLIARV [HLCS_Y635_D634Y_YF]", "phosphorylation enrichment": 1.02}
{"sequence": "PSGPTYRGAVP [ASAH1_Y43]", "phosphorylation enrichment": 0.757}
{"sequence": "FSGDCYRIQGR [DDR2_Y741_Y740C_YF]", "phosphorylation enrichment": 0.593}
{"target": "FGFR3 (UniProt P22607)", "sequence (P22607 whole entry, looked up)": "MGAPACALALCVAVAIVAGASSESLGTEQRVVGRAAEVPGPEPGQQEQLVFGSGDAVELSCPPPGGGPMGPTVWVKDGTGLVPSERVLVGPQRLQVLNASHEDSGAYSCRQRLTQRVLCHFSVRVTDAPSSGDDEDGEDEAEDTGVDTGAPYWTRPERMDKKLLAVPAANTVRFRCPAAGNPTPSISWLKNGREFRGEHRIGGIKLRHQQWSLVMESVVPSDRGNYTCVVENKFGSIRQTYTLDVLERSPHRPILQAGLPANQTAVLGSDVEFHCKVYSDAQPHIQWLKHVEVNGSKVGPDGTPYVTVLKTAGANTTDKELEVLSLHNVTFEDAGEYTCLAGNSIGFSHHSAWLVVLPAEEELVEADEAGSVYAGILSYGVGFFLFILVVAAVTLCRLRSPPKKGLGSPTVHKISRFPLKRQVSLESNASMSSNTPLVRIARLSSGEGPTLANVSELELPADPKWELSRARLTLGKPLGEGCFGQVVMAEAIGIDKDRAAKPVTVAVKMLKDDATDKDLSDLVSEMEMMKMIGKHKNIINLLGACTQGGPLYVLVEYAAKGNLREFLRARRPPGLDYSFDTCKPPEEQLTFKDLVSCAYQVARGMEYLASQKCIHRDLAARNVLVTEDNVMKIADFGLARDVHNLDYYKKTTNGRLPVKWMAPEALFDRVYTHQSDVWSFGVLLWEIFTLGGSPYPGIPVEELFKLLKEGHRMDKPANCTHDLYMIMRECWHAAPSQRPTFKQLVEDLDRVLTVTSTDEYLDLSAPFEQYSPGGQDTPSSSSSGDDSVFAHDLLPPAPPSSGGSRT", "assay": "phosphorylation enrichment, bacterial display (enrichment ratio); higher = better substrate or ligand; peptides without Tyr show the background"}
{"sequence": "TNQVIYLNPPI [DYNC1H1_Y970]", "phosphorylation enrichment": 2.94}
{"sequence": "LFLALYTGLVH [PIGB_Y402]", "phosphorylation enrichment": 1.39}
{"sequence": "ESFCLYPPVPQ [CYP4B1_Y377_R375C]", "phosphorylation enrichment": 0.647}
{"sequence": "EEALFYLTRVE [SET_Y119_H118Y_YF]", "phosphorylation enrichment": 1.05}
{"sequence": "GGYTCCCDGKK [PROS1_Y266_Y266C]", "phosphorylation enrichment": 0.618}
{"sequence": "SEDSEYYKAFE [CASQ2_Y178]", "phosphorylation enrichment": 0.98}
{"sequence": "YFRDGYMPRQY [GSS_Y270]", "phosphorylation enrichment": 2.73}
{"sequence": "TSYSGYRCHRH [NKAPL_Y94_Y96C]", "phosphorylation enrichment": 0.584}
{"sequence": "IDPYIYTPFGS [CYP3A4_Y432]", "phosphorylation enrichment": 1.66}
{"sequence": "WQQQSYLDSVI [CTNNB1_Y30_G34V]", "phosphorylation enrichment": 0.716}
{"sequence": "FTRNFYVWAVL [CYBA_Y88_R90W_YF]", "phosphorylation enrichment": 0.756}
{"sequence": "IEPVIDVVQRR [ANOS1_Y217_Y217D]", "phosphorylation enrichment": 0.592}
{"sequence": "SDFFAYSPVRE [H6PD_Y449_YF]", "phosphorylation enrichment": 0.675}
{"sequence": "SLNEEYAKNKT [MSH2_Y563_T564A]", "phosphorylation enrichment": 0.538}
{"sequence": "ETKRPYTVILI [SBDS_Y128]", "phosphorylation enrichment": 0.722}
{"sequence": "TEVRRYVLPLN [RPE65_Y368_P363T]", "phosphorylation enrichment": 0.785}
{"sequence": "RRIHSYRGFLW [VHL_Y112_H115Y_YF]", "phosphorylation enrichment": 0.378}
{"sequence": "VPLATYMRIYK [RPL21_Y30]", "phosphorylation enrichment": 0.687}
{"sequence": "RHIEKYVDQGK [IRAK3_Y61]", "phosphorylation enrichment": 0.633}
{"sequence": "GTTIHYNFMCN [TP53_Y234_C229G_YF]", "phosphorylation enrichment": 0.822}
{"sequence": "ISKKIYDTIHD [CTNNA3_Y614]", "phosphorylation enrichment": 0.357}
{"sequence": "ITSLLYHVVGW [GBA_Y412_N409S]", "phosphorylation enrichment": 5}
{"sequence": "NLMPAYYKCIQ [CYP21A2_Y190]", "phosphorylation enrichment": 0.866}
{"sequence": "HCFAAYFQQGD [GPI_Y351_R347C]", "phosphorylation enrichment": 1.28}
{"sequence": "WNNLDYMDSRR [GAA_Y407_D404N]", "phosphorylation enrichment": 0.636}
{"sequence": "PASWTYVRWFD [PTDSS1_Y274]", "phosphorylation enrichment": 1.35}
{"sequence": "PLRAFYLIARV [HLCS_Y635_D634Y_YF]", "phosphorylation enrichment": 1.84}
{"sequence": "PSGPTYRGAVP [ASAH1_Y43]", "phosphorylation enrichment": 0.503}
{"sequence": "FSGDCYRIQGR [DDR2_Y741_Y740C_YF]", "phosphorylation enrichment": 0.666}
{"target": "FGFR1 (UniProt P11362)", "sequence (P11362 whole entry, looked up)": "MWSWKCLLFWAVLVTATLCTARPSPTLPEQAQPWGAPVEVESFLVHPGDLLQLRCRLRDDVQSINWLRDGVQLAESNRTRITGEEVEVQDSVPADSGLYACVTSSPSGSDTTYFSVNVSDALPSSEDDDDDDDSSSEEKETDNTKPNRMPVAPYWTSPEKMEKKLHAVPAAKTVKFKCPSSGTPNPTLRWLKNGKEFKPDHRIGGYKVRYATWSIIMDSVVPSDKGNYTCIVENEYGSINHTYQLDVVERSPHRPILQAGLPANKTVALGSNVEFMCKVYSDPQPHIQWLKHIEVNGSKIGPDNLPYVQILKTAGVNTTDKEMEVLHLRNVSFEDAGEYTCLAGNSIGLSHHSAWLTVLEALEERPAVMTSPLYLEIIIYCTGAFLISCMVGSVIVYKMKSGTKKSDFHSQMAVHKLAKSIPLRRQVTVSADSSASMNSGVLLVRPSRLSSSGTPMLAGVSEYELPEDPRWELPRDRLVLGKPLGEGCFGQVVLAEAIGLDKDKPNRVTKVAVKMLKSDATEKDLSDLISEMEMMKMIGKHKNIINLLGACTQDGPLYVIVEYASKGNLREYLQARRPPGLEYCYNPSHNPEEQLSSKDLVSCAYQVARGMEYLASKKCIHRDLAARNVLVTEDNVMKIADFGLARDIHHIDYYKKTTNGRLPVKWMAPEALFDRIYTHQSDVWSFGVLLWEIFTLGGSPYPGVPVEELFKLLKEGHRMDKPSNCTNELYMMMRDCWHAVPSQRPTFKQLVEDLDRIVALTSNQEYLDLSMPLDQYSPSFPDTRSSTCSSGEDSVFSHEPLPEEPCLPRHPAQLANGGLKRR", "assay": "phosphorylation enrichment, bacterial display (enrichment ratio); higher = better substrate or ligand; peptides without Tyr show the background"}
{"sequence": "TNQVIYLNPPI [DYNC1H1_Y970]", "phosphorylation enrichment": 3.51}
{"sequence": "LFLALYTGLVH [PIGB_Y402]", "phosphorylation enrichment": 0.775}
{"sequence": "ESFCLYPPVPQ [CYP4B1_Y377_R375C]", "phosphorylation enrichment": 0.539}
{"sequence": "EEALFYLTRVE [SET_Y119_H118Y_YF]", "phosphorylation enrichment": 0.599}
{"sequence": "GGYTCCCDGKK [PROS1_Y266_Y266C]", "phosphorylation enrichment": 0.444}
{"sequence": "SEDSEYYKAFE [CASQ2_Y178]", "phosphorylation enrichment": 0.58}
{"sequence": "YFRDGYMPRQY [GSS_Y270]", "phosphorylation enrichment": 3.74}
{"sequence": "TSYSGYRCHRH [NKAPL_Y94_Y96C]", "phosphorylation enrichment": 0.63}
{"sequence": "IDPYIYTPFGS [CYP3A4_Y432]", "phosphorylation enrichment": 2.44}
{"sequence": "WQQQSYLDSVI [CTNNB1_Y30_G34V]", "phosphorylation enrichment": 0.579}
{"sequence": "FTRNFYVWAVL [CYBA_Y88_R90W_YF]", "phosphorylation enrichment": 0.498}
{"sequence": "IEPVIDVVQRR [ANOS1_Y217_Y217D]", "phosphorylation enrichment": 0.393}
{"sequence": "SDFFAYSPVRE [H6PD_Y449_YF]", "phosphorylation enrichment": 0.422}
{"sequence": "SLNEEYAKNKT [MSH2_Y563_T564A]", "phosphorylation enrichment": 0.472}
{"sequence": "ETKRPYTVILI [SBDS_Y128]", "phosphorylation enrichment": 0.582}
{"sequence": "TEVRRYVLPLN [RPE65_Y368_P363T]", "phosphorylation enrichment": 0.482}
{"sequence": "RRIHSYRGFLW [VHL_Y112_H115Y_YF]", "phosphorylation enrichment": 0.389}
{"sequence": "VPLATYMRIYK [RPL21_Y30]", "phosphorylation enrichment": 0.526}
{"sequence": "RHIEKYVDQGK [IRAK3_Y61]", "phosphorylation enrichment": 0.512}
{"sequence": "GTTIHYNFMCN [TP53_Y234_C229G_YF]", "phosphorylation enrichment": 0.544}
{"sequence": "ISKKIYDTIHD [CTNNA3_Y614]", "phosphorylation enrichment": 0.433}
{"sequence": "ITSLLYHVVGW [GBA_Y412_N409S]", "phosphorylation enrichment": 5.64}
{"sequence": "NLMPAYYKCIQ [CYP21A2_Y190]", "phosphorylation enrichment": 0.57}
{"sequence": "HCFAAYFQQGD [GPI_Y351_R347C]", "phosphorylation enrichment": 0.914}
{"sequence": "WNNLDYMDSRR [GAA_Y407_D404N]", "phosphorylation enrichment": 0.538}
{"sequence": "PASWTYVRWFD [PTDSS1_Y274]", "phosphorylation enrichment": 0.907}
{"sequence": "PLRAFYLIARV [HLCS_Y635_D634Y_YF]", "phosphorylation enrichment": 1.07}
{"sequence": "PSGPTYRGAVP [ASAH1_Y43]", "phosphorylation enrichment": 0.58}
{"sequence": "FSGDCYRIQGR [DDR2_Y741_Y740C_YF]", "phosphorylation enrichment": 0.431}
